In patent US20230357323A1, “HUMAN IL23 RECEPTOR BINDING POLYPEPTIDES” (University of Washington, priority 2020, published 2023):
Read-outs that look alike come from different tables or passages of the source. One block for each substance: values may come before it.

Columns and labels:
human IL-23R (hIL-23R) = target: T1, human IL-23R (hIL-23R) (Homo sapiens, UniProt Q5VWK5); test: Biolayer interferometry (BLI) binding to hIL-23R; settings: biolayer interferometry binding titrations; read-out: affinity (KD) for hIL-23R
T1 construct: his tag (C); purchased
T1 sequence (Q5VWK5 24-629): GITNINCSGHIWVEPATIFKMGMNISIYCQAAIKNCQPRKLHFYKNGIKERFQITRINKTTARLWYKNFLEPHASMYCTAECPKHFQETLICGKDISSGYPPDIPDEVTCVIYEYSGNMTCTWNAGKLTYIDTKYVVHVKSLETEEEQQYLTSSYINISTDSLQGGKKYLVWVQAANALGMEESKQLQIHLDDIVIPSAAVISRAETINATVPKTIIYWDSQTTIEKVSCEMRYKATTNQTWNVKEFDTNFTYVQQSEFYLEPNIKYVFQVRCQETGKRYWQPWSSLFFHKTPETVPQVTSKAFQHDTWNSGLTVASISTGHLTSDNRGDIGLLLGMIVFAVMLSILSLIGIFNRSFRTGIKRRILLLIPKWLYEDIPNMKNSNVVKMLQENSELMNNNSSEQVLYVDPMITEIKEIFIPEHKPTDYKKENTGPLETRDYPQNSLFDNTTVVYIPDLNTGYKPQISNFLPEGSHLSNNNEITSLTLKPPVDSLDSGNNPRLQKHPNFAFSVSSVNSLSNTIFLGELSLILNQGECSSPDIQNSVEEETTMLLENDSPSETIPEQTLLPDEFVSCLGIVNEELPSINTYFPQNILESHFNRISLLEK
From the text: Two designs, 23R_A (SEQ ID NO:10) and 23R_B (SEQ ID NO:110), were highly enriched in the final selection pool and were chosen for further biochemical characterization. Both designs are 3-helix bundles (54 and 53 residues, respectively) which incorporate the native Trp hotspot at the N-terminal end of a helix such that IL-23R residue D118 forms a helix-capping hydrogen bond with the Trp hotspot's free backbone amine, similar to the αD helix of p19 (FIG. 1D). In both designs, this central binding helix has a larger interaction surface with hIL-23R, mediated by additional de novo hotspots, than p19. […]
Variants were first screened for relative binding to hIL-23R with biolayer interferometry (BLI). hIL-23R was immobilized on the BLI sensor tips and binding to each variant in solution at a constant concentration (50 nM) was measured to qualitatively determine relative performance of the variants. For the best-performing variants, binding constants (KD, including kon, and koff) were quantitatively determined with BLI titration experiments in triplicate. […]
Qualitative and quantitative assessment of binding affinity was performed using biolayer interferometry (ForteBio Octet™ […] and associated software for analysis). […] Kinetic constants were determined from the mathematical fit of a 1:1 binding model.

[1] = Proteolytic stability in simulated intestinal fluid (SIF), SDS PAGE; format: in vitro ADME; settings: for SIF t1/2: pH 6.5
From the text: (§1) While resistance to high heat is important for manufacturing and storage, and resistance to chemical denaturant is a good proxy for stability overall, any oral, gut-restricted IL-23R inhibitor will preferably survive the harsh conditions of the gastrointestinal tract, including high acidity and physiological proteases, to reach the site of action intact. To determine feasibility of oral administration, we therefore more directly assessed the stability of our designed IL-23R inhibitors in simulated gastric fluid (SGF), including the protease pepsin at pH 2, and simulated intestinal fluid (SIF), including proteases trypsin and chymotrypsin at pH 6.5. Proteolysis was assessed qualitatively by SDS PAGE at timepoints up to 24 hours.
Several reported formulations of simulated intestinal fluid show variable proteolytic activity, and protease activity of human intestinal fluid has not been thoroughly studied. Therefore, as a benchmark for SIF stability, we directly compared our designs to V565-38F, an oral, gut-restricted nanobody inhibitor of TNFa currently in a phase 2 clinical trial for Crohn's disease, in SIF with enzyme concentrations sufficient to degrade this molecule over 24 hours. Design variants with proteolytic stability greater than or equal to V565-38F are likely to be sufficiently stable to enable oral therapy.
(§2) Simulated intestinal fluid (SIF) was prepared as recommended by Jantratid et al. (termed FaSSIFv2) with the addition of proteases trypsin and chymotrypsin each at 30 μg/mL.^18 This composition is denoted as “1x SIF” in the text. In some instances, designed proteins (pure recombinant protein, or yeast libraries as above) or the comparator V565-38F were so stable that minimal degradation could be detected at the maximum duration (24 hours for SDS PAGE experiments, 90 minutes for cytometry experiments). Therefore, we increased the concentrations of both trypsin and chymotrypsin to increase the rate of digestion; these solutions are denoted as “#x SIF”, where for example “2x SIP” denotes a 2-fold increase in concentration of both trypsin and chymotrypsin (to 60 μg/mL), Simulated gastric fluid was prepared as follows: 600 ug/mL pepsin and 34.2 mM NaCl in water, with […] added to adjust pH to 2.
For qualitative assessment of proteolytic stability, pure recombinant proteins were digested at 37° C. for 24 hours and proteolytic cleavage assessed by SDS PAGE. From concentrated stock solutions, recombinant proteins were added to stock SGF and SIF solutions to a final concentration of 0.1 mg/mL. Timepoints were taken at 0, 5, 15, 30, 60 minutes, 4 and 24 hours; at each timepoint, samples were removed and immediately mixed with load dye and boiled for 5 minutes at 95° C. to quench protease activity. 5 ug protein (based on initial digest concentration of 0.1 mg/mL) per timepoint were run on 16% Tris-tricine polyacrylamide gels.

IL-23R [2] = target: T2, IL-23R (Homo sapiens, UniProt Q5VWK5); test: IL-23-mediated cell signaling assay (Promega IL-23 Bioassay luciferase reporter cells); format: cell-based; settings: IL-23 reporter assay; C-terminal versus N-terminal 6-histidine tag
T2 sequence (Q5VWK5 24-629): T1 sequence (Q5VWK5 24-629)
Method: FIG. 7. Designed IL-23R inhibitor block IL-23-mediated cell signaling in vitro. Cells engineered to express luciferase downstream of IL-23R (Promega) were pre-incubated for 30 minutes with a titration of each inhibitor, then stimulated with 8 ng/mL human IL-23 cytokine for 6 hours. Luciferase substrate was added, luminescence read, and % inhibition of signaling calculated relative to wells with no inhibitor added. IC50 was calculated using linear regression to fit dose response; values are shown above alongside fold increase in potency relative to a competitor molecule PTG compound C.
Next, we assessed the ability of IL-23R inhibitors to block IL-23-mediated cell signaling. […] IC50 values were determined using linear regression to fit dose response.
Commercial IL-23 reporter cells (Promega IL-23 Bioassay) expressing luciferase downstream of IL-23R were used to assess inhibition of IL-23-mediated cell signaling. Cells were plated in the inner wells of 96-well tissue culture treated white plates suitable for reading luminescence. Cells were pre-incubated for 30 minutes with a dilution series of each inhibitor, then treated with the EC80 stimulatory concentration of recombinant human IL-23 cytokine determined in preceding experiments (8 ng/mL; R&D 1290-IL). After 6 hours incubation with human IL-23, luciferase substrate was added and luminescence read. […]

IL-23R [3] = target: T2, IL-23R; test: Surface plasmon resonance (SPR) binding affinity to hIL-23R; parameters: his tag (C); purchased
[4] = Proteolytic stability in simulated gastric fluid (SGF), SDS PAGE; format: in vitro ADME
From the text: as §1, §2
For qualitative assessment of proteolytic stability, pure recombinant proteins were digested at 37° C. for 24 hours and proteolytic cleavage assessed by SDS PAGE. From concentrated stock solutions, recombinant proteins were added to stock SGF and SIF solutions to a final concentration of 0.1 mg/mL. […]

[5] = trypsin and chymotrypsin, 37° C., SDS PAGE

Kd (human IL-23R (hIL-23R)): 1.7 nM
Substance: IL-23 cytokine: native ligand; heterodimeric cytokine composed of the p19 subunit and the p40 subunit

Substance: PLWQVFYLLNTCIKRTGDPTCKKLAKALRECLKKGDLKACNELADKAVKYINS [B04dslf02IB]
effect of C-terminal 6-histidine tag on proteolytic stability ([1]; SGF or SIF up to 24 hours, C-terminal versus N-terminal 6-histidine tag): greatly enhances the proteolytic stability | SIF t1/2 [1, 5]: 30 to 60 min | effect of C-terminal 6-histidine tag on potency (IL-23R [2]): no effect on potency | Kd (IL-23R [3]): < 0.001 nM

Substance: PEPEKYLQELCKKYYEGKLSQQEAVEEIRKYARKWGLEAWKLVWYFMQCVKRDI [rA11dslf02_M1P_R8Q_K35W]
stability in SGF compared to V565-38F ([4]; SGF): much more stable | stability in SIF compared to V565-38F ([1]; SIF with enzyme concentrations sufficient to degrade V565-38F over 24 hours (3x SIF)): similarly stable | SIF t1/2 [1, 5]: 240 to 1440 min | Kd (IL-23R [3]): 0.075 nM

Substance: MEPEKYLRELCKKYYEGKLSQQEAVEEIRKYARKKGLEAWKLVWYFMQCVKRDI [rA11dslf02]
SIF t1/2 ([1]; simulated gi fluid): 60 min

Substance: NLWQIFYLLNTCIKRTGDPTCKKLKKALRECEKKGDEKACKELAKKAMKYIRS (NLWQIFYLLNTCIKRTGDPTCKKLKKALRECLKKGDEKACKELAKKAMKYIRS) [B04dslf02]
SIF t1/2 [1, 5]: 5 to 15 min

Substance: mB09dslf01-T48I: best mIL-23R inhibitor after optimization for stability and mIL-23R affinity; T48I variant of mB09dslf01; no SEQ ID given (NLWQIFYCLLTCIKRTGDPTCKKLLKALQEAVKKNDEKAVKELAKKAIKYCRSHHHHHH)
stability in SGF compared to V565-38F [4]: more stable | SGF t1/2 ([4]; simulated gi fluid, pH 2): greater than 24 hours | 3x SIF t1/2 ([1]; simulated gi fluid): greater than 24 hours
